Bridge positions count the residues as written; N and C are the ends. Square brackets hold non-standard residues; d marks the D form. Ends that are not written are not given here. dPhe(F5) = N[C@H](Cc1c(F)c(F)c(F)c(F)c1F)C(=O)O; 1Nal = N[C@@H](Cc1cccc2ccccc12)C(=O)O; 2Nal = N[C@@H](Cc1ccc2ccccc2c1)C(=O)O; S5 = C=CCCC[C@](C)(N)C(=O)O; I_N = not defined here; βAla = NCCC(=O)O
Target: equimolar RAMANK1-CSL complex (human) (UniProt P46531)
Assay: SPR (Biacore 3000), peptide immobilised on a streptavidin chip, equimolar RAMANK1 and CSL injected; bio-SAHM1, stapled peptide

Row | Kd [nM] | Molecule
1 | 100 | ERLRRRI[S5]LCR[S5]HHST (peptide, UniProt Q92585 21-36, looked up, staple 8-12; not fully specified (N-terminus); also: biotin label, linker not described) [Bio-SAHM1 (biotinylated stapled MAML1 E21-T36 peptide)]

Target: GST-RAMANK1-CSL complex (human) (UniProt P46531)
Assay: ALPHAscreen competition against Bio-sdnMAML1 binding to GST-RAMANK1-CSL

Row | IC50 (read off the curve) [nM] | Molecule
2 | 100 | unlabeled Ac-sdnMAML1 peptide (from UniProt Q92585 16-70)

Target: equimolar RAMANK1-CSL complex (human) (UniProt P46531)
Assay: SPR, preformed RAMANK1-CSL complex

Row | fold decrease in affinity against s-dnMAML1 [fold] | Molecule
3 | 10 | bio-nt-sdnMAML1 (residues 16-45), N-terminal helix of dnMAML1 (from UniProt Q92585 16-45) (peptide)

Target: NOTCH1-CSL transactivation complex in U2OS cells transfected with the truncated, constitutively activated ΔEGFΔLNR-NOTCH1 allele, P46531
Assay: cell-based or functional assay

Row | EC50, NOTCH1-driven CSL-luciferase dual reporter in U2OS cells [nM] | fold lower IC50 than SAHM1, NOTCH1 reporter gene assay [fold] | Molecule
4 | 5000 | 4 | Ac-W[βAla]ERWRRRI[S5]YFR[S5]HHST[dPhe(F5)]EAR[1Nal] (staple 10-14)
5 | 10000 | 2 | Ac-W[βAla]ERWRRRI[S5]LFR[S5]HHSTCEARY (staple 10-14) [SAHM1-25 (E21-Y41 scaffold, L23W/C30F double mutant), Q92585 21-41]

Target: equimolar RAMANK1-CSL complex (human) (UniProt P46531)
Assay: SPR (Biacore 3000), peptide immobilised on a streptavidin chip, equimolar RAMANK1 and CSL injected; bio-sdnMAML1, residues 16-70

Row | Kd [nM] | Molecule
6 | 40 | synthetic, biotinylated dnMAML1 (Bio-sdnMAML1, residues 16-70) (from UniProt Q92585 16-70) (peptide)

Target: equimolar RAMANK1-CSL complex (human) (UniProt P46531)
Assay: SPR (Biacore 3000), peptide immobilised on a streptavidin chip, equimolar RAMANK1 and CSL injected; bio-nt-sdnMAML1, residues 16-45

Row | Kd [nM] | Molecule
7 | 400 | bio-nt-sdnMAML1 (residues 16-45), N-terminal helix of dnMAML1 (from UniProt Q92585 16-45) (peptide)

Target: GST-RAMANK1-CSL complex (human) (UniProt P46531)
Assay: ALPHAscreen titration matrix, binding components in the range of 10-100 nM

Row | ALPHAscreen luminescent signal (maximum) [c.p.s.] | Molecule
8 | 45000 | synthetic, biotinylated dnMAML1 (Bio-sdnMAML1, residues 16-70) (from UniProt Q92585 16-70) (peptide)

Target: GST-RAMANK1-CSL complex (human) (UniProt P46531)
Assay: ALPHAscreen, 40 nM of all partners

Row | signal-to-noise ratio [fold] | Molecule
9 | 30 | synthetic, biotinylated dnMAML1 (Bio-sdnMAML1, residues 16-70) (from UniProt Q92585 16-70) (peptide)

Target: GST-RAMANK1-CSL complex (human) (UniProt P46531)
Assay: ALPHAscreen NTC competition: peptide titrated against Bio-sdnMAML1 binding to GST-RAMANK1-CSL; IC50 with 95% CI

Row | IC50 [nM] | Molecule
10 | 320 | Ac-W[βAla]ERWRRRI[S5]YFR[S5]HHST[dPhe(F5)]EAR[1Nal] (staple 10-14) [SAHM1-62 (E21-Y41 scaffold with L23W, L29Y, C30F, C37 D-pentafluoro-Phe and Y41 1-naphthylalanine)]
11 | 3700 | Ac-W[βAla]RELRREI[S5]LCR[S5]HHST (staple 10-14) [SAHM1-D1]
12 | 450 | Ac-W[βAla]ERWRRRL[S5]YFR[S5]HHST[dPhe(F5)]EARY (staple 10-14) [SAHM1-60]
13 | 270 | Ac-W[βAla]ERWRRRL[S5]YCR[S5]HHSTCEARYEAVSPERL (staple 10-14; cysteine pairing not given here) [SAHM1-76]
14 | 340 | Ac-W[βAla]ERWRRRL[S5]YCR[S5]HHSTCEARY (staple 10-14; cysteine pairing not given here) [SAHM1-59]
15 | 440 | Ac-W[βAla]ERWRRRL[S5]YFR[S5]HHSTCEAR[1Nal] (staple 10-14) [SAHM1-61]
16 | 220 | Ac-W[βAla]ERWRRRI[S5]YFR[S5]HHST (staple 10-14) [SAHM1-56 (E21-T36 scaffold with L23W, L29Y and C30F)]
17 | 360 | Ac-W[βAla]ERWRRRL[S5]YVR[S5]HHSTCEARYEAVSPERL (staple 10-14) [SAHM1-80]
18 | 6500 | Ac-W[βAla]ELER[S5]HTF[S5]LHQR (staple 7-11) [SAHM5]
19 | 370 | Ac-W[βAla]ERWRRRL[S5]WCR[S5]HHSTCEARYEAVSPERL (staple 10-14; cysteine pairing not given here) [SAHM1-81]

The remaining lines, values behind:

Row | Molecule | IC50 [nM]
20 | Ac-W[βAla]ERWRRRL[S5]YVR[S5]HHST (staple 10-14) [SAHM1-48] | 670
21 | Ac-W[βAla]ERWRRRL[S5]LCR[S5]HHST[I_N]EARY (staple 10-14; reading uncertain) [SAHM1-52] | 610
22 | Ac-W[βAla]ERWRRRL[S5]WVR[S5]HHST (staple 10-14) [SAHM1-38] | 540
23 | Ac-W[βAla]ERWRRRI[S5]LFR[S5]HHSTCEARY (staple 10-14) [SAHM1-25 (E21-Y41 scaffold, L23W/C30F double mutant)] | 290
24 | Ac-W[βAla]ERWRRRL[S5]LFR[S5]HHST[dPhe(F5)]EARY (staple 10-14) [SAHM1-35] | 1200
25 | Ac-W[βAla]ERWRRRL[S5]YCR[S5]HHST (staple 10-14) [SAHM1-47] | 460
26 | Ac-W[βAla]ERLRRRI[S5]LCR[S5]HHSTFEARY (staple 10-14) [SAHM1-28] | 560
27 | Ac-W[βAla]ERLRRRI[S5]LCR[S5]HHST (staple 10-14) [AcW-SAHM1 (stapled MAML1 E21-T36 peptide with N-acetyl tryptophan cap)] | 1700
28 | Ac-W[βAla]ERWRRRL[S5]WFR[S5]HHST (staple 10-14) [SAHM1-39] | 900
29 | Ac-W[βAla]ERWRRRL[S5]WCR[S5]HHST[dPhe(F5)]EARY (staple 10-14) [SAHM1-43] | 780
30 | Ac-W[βAla]ERWRRRI[S5]FCR[S5]HHSTCEARY (staple 10-14; cysteine pairing not given here) [SAHM1-26] | 850
31 | Ac-W[βAla]ERWRRRI[S5]WCR[S5]HHSTCEARY (staple 10-14; cysteine pairing not given here) [SAHM1-27 (E21-Y41 scaffold, L23W/L29W double mutant)] | 200
32 | Ac-W[βAla]ERWRRRL[S5]LCR[S5]HHSTCEAR[1Nal] (staple 10-14; cysteine pairing not given here) [SAHM1-51] | 360
33 | Ac-W[βAla]ERWRRRI[S5]YCR[S5]HHST (staple 10-14) [SAHM1-55] | 250
34 | Ac-W[βAla]ERLRRRI[S5]LCR[S5]HHSTCEARY (staple 10-14; cysteine pairing not given here) [SAHM1-24 (stapled peptide of the E21-Y41 scaffold)] | 1120
35 | Ac-W[βAla]ERWRRRL[S5]LCR[S5]HHSTCEAR[2Nal] (staple 10-14; cysteine pairing not given here) [SAHM1-50] | 410
36 | Ac-W[βAla]ERWRRRI[S5]FCR[S5]HHST (staple 10-14) [SAHM1-22] | 690

Reference: patent US20140256912A1, “Stabilized Variant MAML Peptides and Uses Thereof” (PRESIDENT AND FELLOWS OF HARVARD COLLEGE, priority 2011, published 2014)
